Data taken from patent publication US20080045454A1 (TRUSTEES OF COLUMBIA UNIVERSITY IN THE CITY OF NEW YORK, published 2008).

T1: TRIMStop fused to lexA (owl monkey (Aotus trivirgatus))
T1 construct: Yeast two-hybrid bait; also called LexA-TRIMStop; not shown: LexA, fusion partner of the yeast two-hybrid system
T1 chain: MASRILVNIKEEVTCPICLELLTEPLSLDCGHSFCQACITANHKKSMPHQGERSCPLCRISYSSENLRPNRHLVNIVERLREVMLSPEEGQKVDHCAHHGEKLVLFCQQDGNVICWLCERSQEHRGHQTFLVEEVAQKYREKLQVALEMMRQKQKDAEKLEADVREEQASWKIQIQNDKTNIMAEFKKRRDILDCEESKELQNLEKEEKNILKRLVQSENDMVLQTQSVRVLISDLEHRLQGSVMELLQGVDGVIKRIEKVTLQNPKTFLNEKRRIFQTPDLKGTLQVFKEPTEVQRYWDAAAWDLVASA


Tests used:
TRIMStop fused to lexA = molecular target: T1, TRIMStop fused to lexA; assay: yeast two-hybrid, β-galactosidase reporter
Protocol: (A) Yeast two-hybrid system. […] Pairs of fused LexA and B42 expression plasmids were transformed into Saccharomyces cerevisiae strain EGY48. For each transformant, β-galactosidase activity for three colonies is reported in Miller units with the standard deviation. (B) Binding in mammalian cells.
Fusions of these proteins with LexA and/or B42 were constructed, and the interactions between fusion proteins were analyzed using a previously described system (37) in which reporter gene β-galactosidase activity was assessed with a quantitative assay (43).

TRIMCyp fused to lexA = molecular target: T2, TRIMCyp fused to lexA (owl monkey (Aotus trivirgatus)); assay: yeast two-hybrid, β-galactosidase reporter
T2 construct: Yeast two-hybrid bait; also called LexA-TRIMCyp; not shown: LexA, fusion partner of the yeast two-hybrid system

[1] = molecular target: T3, GST-TRIM5αhu (glutathione S-transferase fusion with full-length human TRIM5α) (human, UniProt Q9C035 2-493); assay: immunofluorescence colocalization in cotransfected TE671 cells
T3 construct: mature; Produced in 293T cells; also called GST-T5α; not shown: glutathione S-transferase (GST)
T3 sequence (Q9C035 2-493): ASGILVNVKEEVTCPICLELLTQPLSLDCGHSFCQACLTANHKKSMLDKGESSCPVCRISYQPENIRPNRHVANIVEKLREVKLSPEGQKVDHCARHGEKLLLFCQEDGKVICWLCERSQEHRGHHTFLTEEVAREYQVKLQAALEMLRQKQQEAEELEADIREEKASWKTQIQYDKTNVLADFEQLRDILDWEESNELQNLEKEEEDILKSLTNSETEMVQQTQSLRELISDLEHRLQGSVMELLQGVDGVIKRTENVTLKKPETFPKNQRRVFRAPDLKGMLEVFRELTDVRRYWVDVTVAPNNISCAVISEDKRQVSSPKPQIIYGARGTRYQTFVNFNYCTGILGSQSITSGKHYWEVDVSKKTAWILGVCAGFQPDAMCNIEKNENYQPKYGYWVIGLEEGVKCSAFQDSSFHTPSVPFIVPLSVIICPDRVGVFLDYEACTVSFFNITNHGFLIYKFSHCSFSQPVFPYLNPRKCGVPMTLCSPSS

Row | Binder | binding result (TRIMStop fused to lexA) | binding result (TRIMCyp fused to lexA) | binding result [1]
1 | TRIMStop expressed in fusion with the B42 activation domain (other, not shown: large carriers, also called B42-TRIMStop) MASRILVNIKEEVTCPICLELLTEPLSLDCGHSFCQACITANHKKSMPHQGERSCPLCRISYSSENLRPNRHLVNIVERLREVMLSPEEGQKVDHCAHHGEKLVLFCQQDGNVICWLCERSQEHRGHQTFLVEEVAQKYREKLQVALEMMRQKQKDAEKLEADVREEQASWKIQIQNDKTNIMAEFKKRRDILDCEESKELQNLEKEEKNILKRLVQSENDMVLQTQSVRVLISDLEHRLQGSVMELLQGVDGVIKRIEKVTLQNPKTFLNEKRRIFQTPDLKGTLQVFKEPTEVQRYWDAAAWDLVASA | binds | binds | –
2 | 3× FLAG N-terminal-tagged TRIMStop (other, also called FLAG-TRIMStop; not shown: 3x FLAG tag of p3xFLAG.CMV (SIGMA)) MASRILVNIKEEVTCPICLELLTEPLSLDCGHSFCQACITANHKKSMPHQGERSCPLCRISYSSENLRPNRHLVNIVERLREVMLSPEEGQKVDHCAHHGEKLVLFCQQDGNVICWLCERSQEHRGHQTFLVEEVAQKYREKLQVALEMMRQKQKDAEKLEADVREEQASWKIQIQNDKTNIMAEFKKRRDILDCEESKELQNLEKEEKNILKRLVQSENDMVLQTQSVRVLISDLEHRLQGSVMELLQGVDGVIKRIEKVTLQNPKTFLNEKRRIFQTPDLKGTLQVFKEPTEVQRYWDAAAWDLVASA | – | – | binds
